Molecular target: T1, peptide substrate KSEVNLDAEFRK derived from the sequence of Swedish amyloid precursor protein
T1 chain: KSEVNLDAEFRK

B1: β-secretase refolded from E. coli overexpression (protein)
chain: TQHGIRLPLRSGLGGAPLGLRLPRETDEEPEEPGRRGSFVEMVDNLRGKSGQGYYVEMTVGSPPQTLNILVDTGSSNFAVGAAPHPFLHRYYQRQLSSTYRDLRKGVYVPYTQGKWEGELGTDLVSIPHGPNVTVRANIAAITESDKFFINGSNWEGILGLAYAEIARPDDSLEPFFDSLVKQTHVPNLFSLQLCGAGFPLNQSEVLASVGGSMIIGGIDHSLYTGSLWYTPIRREWYYEVIIVRVEINGQDLKMDCKEYNYDKSIVDSGTTNLRLPKKVFEAAVKSIKAASSTEKFPDGFWLGEQLVCWQAGTTPWNIFPVISLYLMGEVTNQSFRITILPQQYLRPVEDVATSQDDCYKFAISQSSTGTVMGAVIMEGFYVVFDRARKRIGFAVSACHVHDEFRTAAVEGPFVTLDMEDCGYNIPQTDEST
  specificity constant (Kcat/Km): 1800 ± 100 M⁻¹ s⁻¹

Reference: patent US7166454
